Laboratory results from patent US20070059309A1.

Tests used:
[1] = target: leukocyte interferon (Sigma Product No. I-2396); test: cell-based or functional assay
[2] = target: lymphoblastoid interferon (NIH reference Ga23-901-532)

B1: murine anti-human IFN-α monoclonal antibody 9F3 (antibody, IgG2, V domains shown)
VL: DIVLTQSPASLAVSLGQRATISCRASQSVSTSSYSYMHWYQQKPGQPPKVLISYASNLESGVPARFSGSGSGTDFTLNIHPVEEGDTATYFCQHSWGIPRTFGAGTKLELRRAV
VH: EVQLQQSGPELVKPGASVKISCKTSGYTFTEYIIHWVKQGHGRSLEWIGSINPDYDITNYNQRFKGKATLTLDKSSRTAYLELRSLTSEDSAVYYCASWISDFFDYWGQGTTLMVSAAS
- neutralization of anti-viral activity [1]: > 95%
- EC50 (read off the bars); loss of protection by 3 IU/ml lymphoblastoid interferon, cytopathic effect [2]: 3 ng/mL
- EC50 (read off the bars); loss of protection by 10 IU/ml lymphoblastoid interferon, cytopathic effect [2]: 5 ng/mL
